Measurements from PMC10749193 (Frontiers in Immunology, 2023).

Biological target: SARS-CoV-2 S (Wuhan)-His (1–1273 aa) expressed in HEK293T cells (SARS-CoV-2 Wuhan, UniProt P0DTC2)
Experiment: western blot
Details: one partner purified

B1: anti-S2 monoclonal antibody 4A5 (antibody, V domains shown)
VH: QVKLEQSGPGILQPSQTLSLTCSFSGFSLSTSGMGVSWIRQSSGKGLEWLTHIYWDDDKRYNPSLKSRLTISKDTSRNQVFLKITSVDTADTATYYCARRRMITGLYYAMDYWGQGTSVTVSS
VL: DIVMTQSTLSLPVSFGDQVSISCRSSQSLANSYGITYLSWYLHKPGQSPQLLIYGISNRFSGVPDRFSGSGSGTDFTLKISTIKPEDLGMYYCLQGTHQPWTFGGGTKLEIK
binding result: binds
